Assay results from publication PMC9798971, “Alarming and Calming: Opposing Roles of S100A8/S100A9 Dimers and Tetramers on Monocytes” (Advanced Science, 2022).

T1: murine S100A9-N70A (murine, UniProt P31725 1-113, N70A)
T1 sequence (looked up): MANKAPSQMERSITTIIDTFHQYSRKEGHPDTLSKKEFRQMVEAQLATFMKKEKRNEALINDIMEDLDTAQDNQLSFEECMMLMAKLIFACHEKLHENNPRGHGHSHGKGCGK

T2: murine S100A9 (murine, UniProt P31725 1-113)
T2 construct: S100A9 (MRP14), murine; also called MRP14
T2 sequence (looked up): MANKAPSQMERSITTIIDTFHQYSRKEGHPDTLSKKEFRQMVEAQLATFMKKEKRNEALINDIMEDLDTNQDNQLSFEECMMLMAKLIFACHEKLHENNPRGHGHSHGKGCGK

T3: S100A8/S100A9-tetramer (murine) (murine, UniProt P27005 1-89; P31725 1-113)
T3 chain 1: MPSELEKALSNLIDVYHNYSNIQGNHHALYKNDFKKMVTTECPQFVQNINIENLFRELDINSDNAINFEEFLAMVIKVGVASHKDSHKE
T3 chain 2: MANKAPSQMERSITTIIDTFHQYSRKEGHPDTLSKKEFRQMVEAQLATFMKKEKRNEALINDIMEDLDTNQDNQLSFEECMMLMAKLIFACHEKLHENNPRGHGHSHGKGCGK

B1: murine S100A8 (natural protein, UniProt P27005 1-89, looked up)
chain: MPSELEKALSNLIDVYHNYSNIQGNHHALYKNDFKKMVTTECPQFVQNINIENLFRELDINSDNAINFEEFLAMVIKVGVASHKDSHKE
notes: S100A8 (MRP8), murine; also called MRP8
B2: recombinant mouse CD69, His-tagged extracellular domain (domain or fragment)
chain: NVGKYNCPGLYEKLESSDHHVATCKNEWISYKRTCYFFSTTTKSWALAQRSCSEDAATLAVIDSEKDMTFLKRYSGELEHWIGLKNEANQTWKWANGKEFNSWFNLTGSGRCVSVNHKNVTAVDCEANFHWVCSKPSR

Tests used:
murine S100A9-N70A = target: T1, murine S100A9-N70A; experiment: reconstitution by refolding together, anion exchange chromatography; equal amounts of the two purified proteins mixed with 1 mM DTT, denatured at pH 2, renatured by stepwise increase of pH to 7.4; residual homodimers separated by anion exchange chromatography; conditions: both partners purified
murine S100A9 = target: T2, murine S100A9; experiment: as above; conditions: both partners purified
[1] = target: T3, S100A8/S100A9-tetramer (murine); experiment: ELISA

Row | Binder | binding result (murine S100A9-N70A) | binding result (murine S100A9) | Kd [1]
1 | B1 | binds | binds | –
2 | B2 | – | – | 5.06 nM
